# Measurements as given in patent publication US20150203577A1 (Chugai, published 2015).
# Residue numbers refer to the chain shown, from its start.
# T1: mouse FcγRIII (mouse, UniProt P08508 31-215)
# T1 construct: also called mFcγRIII; mFcgRIII
# T1 chain: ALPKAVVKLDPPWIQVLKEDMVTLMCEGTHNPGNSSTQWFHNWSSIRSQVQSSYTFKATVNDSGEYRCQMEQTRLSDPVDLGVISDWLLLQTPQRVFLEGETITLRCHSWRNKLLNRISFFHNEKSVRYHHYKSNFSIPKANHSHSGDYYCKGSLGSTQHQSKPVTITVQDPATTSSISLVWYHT
# T2: mouse FcγRII (mouse, UniProt P08101 30-210)
# T2 construct: also called mFcγRII; mFcgRII
# T2 sequence: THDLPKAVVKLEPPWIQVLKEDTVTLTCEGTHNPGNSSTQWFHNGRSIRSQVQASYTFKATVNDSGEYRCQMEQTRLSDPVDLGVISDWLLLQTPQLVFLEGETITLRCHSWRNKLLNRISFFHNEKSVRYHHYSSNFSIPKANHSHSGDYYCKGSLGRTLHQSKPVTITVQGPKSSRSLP
# B1: MB289 (antibody, mouse IgG1, kappa)
# heavy: QVQLQESGPGLVKPSETLSLTCAVSGHSISHDHAWSWVRQPPGEGLEWIGFISYSGITNYNPSLQGRVTISRDNSKNTLYLQMNSLRAEDTAVYYCARSLARTTAMDYWGEGTLVTVSSAKTTPPSVYPLAPGSAAQTNSMVTLGCLVKGYFPEPVTVTWNSGSLSSGVHTFPAVLQSDLYTLSSSVTVPSSTWPSETVTCNVAHPASSTKVDKKIVPRDCGCKPCICEVPEVSDVFIFPPKPKDVLTITLTPKVTCVVVDISKDDPEVQFSWFVDDVEVHTAQTQPREEQFNSTFRSVSELPIMHQDWLNGKEFKCRVNSAAFPAPIEKTISKTKGRPKAPQVYTIPPPKEQMAKDKVSLTCMITDFFPEDITVEWQWNGQPAENYKNTQPIMDTDGSYFVYSKLNVQKSNWEAGNTFTCSVLHEGLHNHHTEKSLSHSPGK
# light: not shown
# notes: copies: 2 + 2
# B2: MB303 (antibody, mouse IgG1, kappa)
# heavy: B1 heavy with V236E
# light: not shown
# notes: copies: 2 + 2
# B3: MB295 (antibody, mouse IgG1, kappa)
# heavy: B1 heavy with E229T, V236H
# light: not shown
# notes: copies: 2 + 2
# B4: MB292 (antibody, mouse IgG1, kappa)
# heavy: B1 heavy with E229T, P231E
# light: not shown
# notes: copies: 2 + 2
# B5: MB301 (antibody, mouse IgG1, kappa)
# heavy: B1 heavy with P231E
# light: not shown
# notes: copies: 2 + 2
# B6: MB296 (antibody, mouse IgG1, kappa)
# heavy: B1 heavy with E229T, S263A
# light: not shown
# notes: copies: 2 + 2
# B7: MB294 (antibody, mouse IgG1, kappa)
# heavy: B1 heavy with E229T, V236E
# light: not shown
# notes: copies: 2 + 2
# B8: MB300 (antibody, mouse IgG1, kappa)
# heavy: B1 heavy with V230D
# light: not shown
# notes: copies: 2 + 2
# B9: MB293 (antibody, mouse IgG1, kappa)
# heavy: B1 heavy with E229T, S234E
# light: not shown
# notes: copies: 2 + 2
# B10: MB299 (antibody, mouse IgG1, kappa)
# heavy: B1 heavy with V230A
# light: not shown
# notes: copies: 2 + 2
# B11: MB291 (antibody, mouse IgG1, kappa)
# heavy: B1 heavy with E229T, V230D
# light: not shown
# notes: copies: 2 + 2
# Biological target: T1, mouse FcγRIII
# Experiment: SPR Biacore T200, KD ratio
# Description: (§1) The antibody H chain variable region used was the variable region H237 (SEQ ID NO: 1) of the H chain VH3-IgG1 of the anti-IL-6 receptor antibody Fv4-IgG1 described in WO2009/125825. The antibody L chain commonly used was the L chain MRAL-k0 (SEQ ID NO: 2) of the anti-IL-6 receptor antibody tocilizumab. […] The resulting variant group was designated as MB110 variants. These variants were expressed and purified by the method of Reference Example 1 and evaluated for their binding to mFcγRII and mFcγRIII by the method of Reference Example 2 using Biacore T200.
# (§2) Each altered antibody was analyzed for its interaction with each Fcγ receptor prepared above using Biacore T100 (GE Healthcare Japan Corp.), Biacore T200 (GE Healthcare Japan Corp.), Biacore A100, or Biacore 4000. The running buffer used was HBS-EP+ (GE Healthcare Japan Corp.). The assay temperature was set to 25° C. The sensor chips used were chips prepared by immobilizing Protein L (ACTIGEN or BioVision) onto Series S Sensor Chip CM5 (GE Healthcare Japan Corp.) or Series S Sensor Chip CM4 (GE Healthcare Japan Corp.) by the amine coupling method.
# (§3) In order to calculate the KD value of each altered antibody for FcγR, kinetic analysis was conducted according to the following method: first, the antibody of interest was captured onto any of these chips and allowed to interact with mFcγR diluted with a running buffer. For the obtained sensorgram, the assay results were globally fit into the 1:1 Langmuir binding model using Biacore Evaluation Software to calculate an association rate constant ka (L/mol/s) and a dissociation rate constant kd (1/s). From these values, the dissociation constant KD (mol/L) was calculated.
Relative mFcγRIII-binding activity (MB110 = 1),relative mFcγRIII-binding activity (mIgG1 = 1),Binder
1.23 fold,4.9 fold,B1
0.32 fold,1.3 fold,B2
0.42 fold,1.7 fold,B3
1.02 fold,4.1 fold,B4
1.16 fold,4.6 fold,B5
1.39 fold,5.6 fold,B6
0.47 fold,1.9 fold,B7
1.41 fold,5.7 fold,B8
1.01 fold,4.1 fold,B9
1.61 fold,6.5 fold,B10
1.66 fold,6.7 fold,B11

# Biological target: T2, mouse FcγRII
# Experiment: SPR Biacore T200, KD ratio
# Description: as §1, §2, §3
Relative mFcγRII-binding activity (MB110 = 1),relative mFcγRII-binding activity (mIgG1 = 1),Binder
3.57 fold,43.8 fold,B1
0.64 fold,7.8 fold,B2
0.62 fold,7.6 fold,B3
2.82 fold,34.6 fold,B4
3.52 fold,43.2 fold,B5
1.71 fold,21 fold,B6
0.62 fold,7.6 fold,B7
4.25 fold,52.3 fold,B8
3.25 fold,39.9 fold,B9
4.96 fold,60.8 fold,B10
3.47 fold,42.6 fold,B11
